Experiment [1] concerns the target PBR (Mus musculus, UniProt P50637). The experiment can be described thus: PK 11195 radioligand binding to PBR interacting with PAP20. As to conditions: PK11195 as a ligand. On the procedure:
^3H-1-(2-chlorophenyl)-N-methyl-N-(1-methyl-propyl)-3-isoquinolinecarboxamide (PK 11195) (NEN, Boston, Mass.) binding studies were performed as we previously described (Papadopoulos, V. et al., 1990, supra; Garnier, M. et al., 1994, Molecular Pharmacology 45, 201–211). The dissociation constant (Kd) and the number of binding sites (Bmax) were determined by Scatchard plot analysis of the data using the LIGAND program (Munson, P. J. and Rodbard, D., 1980, Anal. Biochem. 107, 220–239).

Experiment [2] deals with MA-10 cells. Nature of the experiment: Steroid biosynthesis: hCG-stimulated progesterone production in transfected MA-10 cells. Type of experiment: cell-based, mouse. As to conditions: pSVzeoPAP7 vs pSVzeo empty vector transfectants, hCG 50 ng/ml, dose and time dependent. As to the method: MA-10 cells were grown in modified Waymouth's MB752/1 medium containing 15% horse serum, as described previously (Papadopoulos, V. et al., 1990, J. Biol. Chem. 265, 3772–3779). Mouse C6 glioma and mouse Y1 adrenal cortical cells were cultured in DMEM and DMEM F12 repectively, with 10% fetal bovine serum. MA10 cells were transiently transfected by electroporation (El Hefnawy, T. et al., 1996, Mol. Cell Endocrinol. 119, 207–217). Each Genepulser cuvette (0.4 cm-gap, BioRad, Hercules, Calif.) contained 8×10^6 cells in 350 μl antibiotic-free complete Waymouth's growth medium (see above), plus 30 μg plasmids DNA in 50 μl of 0.1×TE. Cells in electroporation cuvettes were electro-shocked at 330 V and at a capacitance of 950 μFd generated from Genepulser (BioRad, Hercules, Calif.). The cells were kept immediately on ice for 10 min before plated into 96 well plates.
MA-10 cells were plated into 96-well plate at the density of 2.5×10^4/well for overnight. The cells were stimulated with 50 ng/ml hCG in 0.2 ml/well serum-free medium for 2 hours. The culture medium was collected and tested for progesterone production by RIA. The assay was carried out by using anti-progesterone antisera (ICN, Costa Mesa, Calif.), following the conditions recommended by the manufacturer. […] Radioimmunoassay data was analyzed using the software provided by Wallac (EG&G Wallac, Gaithersburg, Md.). […]

The target of experiment [3] is T1, GAL4 (1-147)-PBR fusion (plasmid pGBT9+PBR), mouse peripheral-type benzodiazepine receptor as two-hybrid bait (mouse, UniProt P04386 1-147; P50637 1-169).
T1 construct: Bait of the yeast two-hybrid screen, expressed in yeast HF7c; also called pGBT-PBR; fusion PBR protein
Nature of the experiment: yeast two-hybrid, His3 reporter (histidine prototrophy), second-round transformation of HF7c carrying pGBT9-PBR. From the text:
The Clontech […] two-hybrid system was applied in this study (detailed in manufacturer's instruction book). Briefly, the yeast reporter host strain HF7c was simultaneously cotransformed with both pGBT-PBR and the mouse testis cDNA library in pGAD10 plasmid by using lithium acetate high-efficiency method (Gietz, D. et al., 1992, *Nucleic Acids Res.* 20, 1425). HIS positive clones were further selected by colony lift filter assay for β-galactosidase activity. Plasmid DNA was rescued in *Escherichia coli* DH5? from yeast cells. Plasmids were retransformed into yeast HF7c cells with plasmid pGBT-PBR to test for histidine prototrophy and β-galactosidase activity (Clontech manual). The cDNA inserts from the positive clones were sequenced. The full length PAP7 cDNA was obtained by using 5' and 3' RACE kit from kit (CLONTECH, Palo Alto, Calif.).
Library plasmids from these transformants were rescued in *E. coli* strain DH5α. Both the His+ phenotype and the expression of β-galactosidase were confirmed by a second-round transformation of strain HF7c carrying pGBT9-PBR (Table 1).

Sequence of PBR (P50637 whole entry): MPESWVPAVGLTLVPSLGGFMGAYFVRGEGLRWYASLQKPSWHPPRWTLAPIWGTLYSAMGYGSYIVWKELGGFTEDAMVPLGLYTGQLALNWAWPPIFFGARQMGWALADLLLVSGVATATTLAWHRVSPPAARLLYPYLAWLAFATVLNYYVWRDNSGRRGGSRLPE

B1: PAP20: PBR associated protein, polypeptide of 196 amino acids, SEQ ID NO:10; predominantly expressed in testis (protein, listed as Mus musculus)
chain: NSRPRRPQKRKRGAEVLAAQIVQKTRLERKKQEASVSKDAPVPTNTKRAKKQEKSPGRIASQSKPPMKKSPQKRKVNVARGRRNTRKQLQPAEKEIALHLQSEISSDGQKDGLNLSTSQQESISMIPKGPPENSVISCDSQALNMLADLALSSAAASIPSCKPRNLPCVSDLPRNNVLLTKENPLLGASDHEYHKG
For B1, the “affinity of ligand binding to PBR” value in experiment [1] is listed as “increased the affinity of ligand binding”.

B2: PAP7: PBR associated protein 7, SEQ ID NO:7; in transfection a partial sequence including the PBR binding domain in pSVzeo (protein, listed as Mus musculus)
chain: RPRRPKVELFTVVTRVKVVLFLNQLSLCKLVKDGKAFHPTYEEKLKFVALHKQVLLGPYNPDTSPEVGFFDVLGNDRRREWAALGNMSKEDAMVEFVKLLNKCCPLLSAYVASHRIEKEEEEKRRKAEEERRQREEEERERLQKEEEKRKREEEDRLRREEEERRRIEEERLRLEQQKQQIMAALNSQTAVQFQQYAAQQYPGNYEQQQILIRQLQEQHYQQYKHQAEQTQPAQQQAALQKQQEVVMAGASLPASSKVNTAGASDTLSVNGQAKTHTENSEKVLEPEAAEEALENGPKDSLPVIAAPSMWTRPQIKDFKEKIRQDADSVITVRRGEVVTVRVPTHEEGSYLFWEFATDSYDIGFGVYFEWTDSPNAAVSVHVSESSDEEEEEEENVTCEEKAKKNANKPLLDEIVPVYRRDCHEEVYAGSHQYPGRGVYLLKFDNSYSLWRSKSVYYRVYYTR
On to B2, for which the entries for the “progesterone production in response to hormonal (hCG) stimulation” value in experiment [2] and in experiment [2] (listed as PAP7 fragment) were “significantly reduced” and “significantly inhibited”, respectively.

B3: PAP20 (PBR associated protein 20), two-hybrid clone in pGAD10 (other)
chain: ANFNQSGNIADSSLSFTFTNSSNGPNLITTQTNSQALSQPIASSNVHDNFMNNEITASKIDDGNNSKPLSPGWTDQTAYNAFGITTGMFNTTTMDDVYNYLFDDEDTPPNPKKENSRPRRPQKRKRGAEVLAAQIVQKTRLERKKQEASVSKDAPVPTNTKRAKKQEKSPGRIASQSKPPMKKSPQKRKVNVARGRRNTRKQLQPAEKEIALHLQSEISSDGQKDGLNLSTSQQESISMIPKGPPENSVISCDSQALNMLADLALSSAAASIPSCKPRNLPCVSDLPRNNVLLTKENPLLGASDHEYHKG
notes: range 768-881
With B3, the binding result in experiment [3] is reported as “binds”.

Source of the values: patent US7056694B1, “DNA encoding peripheral-type benzodiazipine receptor associated protein 7 and applications or methods of use” (Georgetown University, priority 1998, dated 2006).
